Results reported in patent US20250361274A1, “PEPTIDE AND PEPTIDE-CONTAINING AGENT” (PEPTIDREAM INC., priority 2022, published 2025).
Numbered stars: 1 amine (or outer) side, 2 acyl side, 3 side chain; on linkers, the order of the positions; unused ones are H or OH. Bridge positions count the residues as written; N and C are the ends. Square brackets hold non-standard residues; d marks the D form. Ends that are not written are not given here. * marks the point of attachment. KCOpipzaa = N6-(4-(carboxymethyl)piperazine-1-carbonyl)-L-lysine, O=C(NCCCC[C@H](N[*:1])C(=O)[*:2])N1CCN(CC(=O)[*:3])CC1; pBph2F = (S)-2-amino-3-(2-fluoro-[1,1'-biphenyl]-4-yl)propanoic acid, O=C([C@H](Cc1ccc(-c2ccccc2)c(F)c1)N[*:1])[*:2]; Hgn = (S)-2,6-diamino-6-oxohexanoic acid, NC(=O)CCC[C@H](N[*:1])C(=O)[*:2]; X8 = 4‑(carboxymethyl)piperazine‑1‑carbonyl, O=C(O)CN1CCN(C(=O)*)CC1; Phe(4-(4-F-Ph)) = N[C@@H](Cc1ccc(-c2ccc(F)cc2)cc1)C(=O)O; Ala(2-NH2-4-pyridyl) = Nc1cc(C[C@H](N)C(=O)O)ccn1; 3Pal(6-Ph) = N[C@@H](Cc1ccc(-c2ccccc2)nc1)C(=O)O; Phe(4-COOH) = N[C@@H](Cc1ccc(C(=O)O)cc1)C(=O)O; NMePhe(3-Cl) = CN[C@@H](Cc1cccc(Cl)c1)C(=O)O; Bip = N[C@@H](Cc1ccc(-c2ccccc2)cc1)C(=O)O; Phe(4-F) = N[C@@H](Cc1ccc(F)cc1)C(=O)O; Hyp = O=C(O)[C@@H]1C[C@@H](O)CN1; NMeF = CN[C@@H](Cc1ccccc1)C(=O)O; 4Pal = N[C@@H](Cc1ccncc1)C(=O)O; Cha = N[C@@H](CC1CCCCC1)C(=O)O; Abu = CC[C@H](N)C(=O)O; βAla = NCCC(=O)O

Legend:
BMP4 = biological target: T1, BMP4 (Homo sapiens, UniProt P12644); test: BMP4 signal transduction inhibitory activity: SMAD1 phosphorylation by BMP4 stimulus, AlphaLISA SureFire, A549 cells; format: cell-based; conditions: for aLISA BMP4: A549 cells
T1 sequence (P12644 293-408): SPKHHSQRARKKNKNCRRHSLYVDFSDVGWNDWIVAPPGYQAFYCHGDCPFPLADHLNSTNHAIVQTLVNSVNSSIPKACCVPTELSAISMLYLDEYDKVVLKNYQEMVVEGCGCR

BMP7 = biological target: T2, BMP7 (Homo sapiens, UniProt P18075); test: BMP7 signal transduction inhibitory activity: SMAD1 phosphorylation by BMP7 stimulus, A549 cells; format: cell-based; conditions: for aLISA BMP7: A549 cells
T2 sequence (P18075 293-431): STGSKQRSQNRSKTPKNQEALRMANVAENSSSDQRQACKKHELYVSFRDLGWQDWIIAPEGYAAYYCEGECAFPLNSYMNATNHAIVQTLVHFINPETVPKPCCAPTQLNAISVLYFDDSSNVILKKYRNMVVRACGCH
Summary of the method: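 A549 cells were stimulated with 10 nM BMP7, and peptide inhibition of signalling was measured as SMAD1 phosphorylation. Peptides were tested at three concentrations, in sets ranging from 1–100 nM to 100–1,000 nM, or as eight-point 1/3 dilution series starting at 100 nM or 1,000 nM.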

[1] = SMAD1 phosphorylation, peptides of Synthesis 2, peptide 0.02, 0.2, 2 nM
[2] = 10 nM BMP7, peptides of Synthesis 2, peptide 1, 10, 100 nM
[3] = BMP4 0.2 nM stimulus, peptide conc. in assay 0.02, 0.2, 2 nM, class symbols
[4] = BMP7 10 nM stimulus, peptide conc. in assay 10, 100, 1000 nM, class symbols
[5] = BMP7 10 nM stimulus, peptide conc. in assay 100, 300, 1000 nM, class symbols
[6] = inhibition of SMAD1 phosphorylation by BMP4 stimulus, AlphaLISA, class by peptide concentration zone
[7] = inhibition of SMAD1 phosphorylation by BMP7 stimulus, AlphaLISA, class by peptide concentration zone
[8] = SMAD1 phosphorylation, BMP4 0.2 nM, peptide conc. in assay 0.2, 2, 20 nM
[9] = SMAD1 phosphorylation, BMP7 10 nM, peptide conc. in assay 1, 10, 100 nM

40 ({CH2CO}-ASVYVDK[Bip]PYP[Bip]Y[Phe(4-COOH)][Phe(4-COOH)]SCG-NH2; thioether N-17; not fully specified) [compound 40]
aLISA BMP4 (BMP4; [1]): D (showed inhibitory activity of less than 50% in 2 nM-addition zone)
aLISA BMP7 (BMP7; [2]): ND (the inhibitory activity was less than 30% at the maximum concentration evaluated)

299 (ERV[Phe(4-COOH)]V[KCOpipzaa]R[3Pal(6-Ph)][KCOpipzaa]Y[Hyp][Phe(4-(4-F-Ph))]Y[Phe(4-COOH)][Phe(4-COOH)]SCG-NH2; not fully specified (N-terminus, bridges); also: cyclic peptide, ring closure not given here) [compound 299]
aLIZA BMP4 (0.2 nM) % inh (BMP4; [3]): C (showed less than 30% of inhibitory activity in 0.2 nM-addition zone and showed 30% or more of inhibitory activity in 2 nM-addition zone)
aLIZA BMP7 (10 nM) % inh (BMP7; [4]): ND (the inhibitory activity was less than 30% at the maximum concentration evaluated)

276 (ERV[Phe(4-COOH)]V[KCOpipzaa]R[3Pal(6-Ph)][KCOpipzaa]Y[Hyp][Bip][4Pal][Phe(4-COOH)][Phe(4-COOH)]SCG-NH2; not fully specified) [compound 276]
aLIZA BMP4 (0.2 nM) % inh (BMP4; [3]): B (showed less than 30% of inhibitory activity in 0.02 nM-addition zone and showed 30% or more of inhibitory activity in 0.2 nM-addition zone)
aLIZA BMP7 (10 nM) % inh (BMP7; [5]): ND (the inhibitory activity was less than 30% at the maximum concentration evaluated)

49 (Ac-ARVYVDR[Bip]PYP[Bip]Y[Phe(4-COOH)][Phe(4-COOH)]SC[βAla]-PEG12Me; thioether (positions not given here); not fully specified (bridges)) [compound 49]
aLISA BMP4 (BMP4; [6]): C (showed an inhibitory activity of less than 50% in 0.2 nM-addition zone and showed an inhibitory activity of 50% or more in 2 nM-addition zone were defined as B or C)
aLISA BMP7 (BMP7; [7]): ND (the inhibitory activity was less than 30% at the maximum concentration evaluated)

351 (FG[NMeF]G[Bip]GDD[Cha]A[NMeF]L[Ala(2-NH2-4-pyridyl)]CG-NH2; not fully specified (N-terminus, bridges); also: cyclic peptide, ring closure not given here) [compound 351]
aLISA BMP4 (0.2 nM) % inh (BMP4; [8]): ND (the inhibitory activity was less than 30% at the maximum concentration evaluated)
aLISA BMP7 (10 nM) % inh (BMP7; [9]): D (showed less than 30% of inhibitory activity in 10 nM-addition zone and showed 30% or more of inhibitory activity in 100 nM-addition zone)

343 (FG[NMeF]G[Bip]GDD[Cha][Hgn][NMeF]LHCG-NH2; not fully specified (N-terminus, bridges)) [compound 343]
aLISA BMP4 (0.2 nM) % inh (BMP4; [8]): ND (the inhibitory activity was less than 30% at the maximum concentration evaluated)
aLISA BMP7 (10 nM) % inh (BMP7; [9]): D (showed less than 30% of inhibitory activity in 10 nM-addition zone and showed 30% or more of inhibitory activity in 100 nM-addition zone)

364 (FG[NMeF]G[Bip]GDE[Cha]Q[NMeF]LHCG-NH2; not fully specified (N-terminus, bridges)) [compound 364]
aLISA BMP4 (0.2 nM) % inh (BMP4; [8]): ND (the inhibitory activity was less than 30% at the maximum concentration evaluated)
aLISA BMP7 (10 nM) % inh (BMP7; [9]): D (showed less than 30% of inhibitory activity in 10 nM-addition zone and showed 30% or more of inhibitory activity in 100 nM-addition zone)

406 (FG[NMeF]G[Bip]GDE[Cha]Q[NMeF]L[Phe(4-COOH)]C[βAla]) [compound 406]
aLISA BMP4 (0.2 nM) % inh (BMP4; BMP4 0.2 nM stimulus, peptide conc. in assay 0.2, 2, 20 nM): ND (the inhibitory activity was less than 30% at the maximum concentration evaluated)
aLISA BMP7 (10 nM) % inh (BMP7; BMP7 10 nM stimulus, peptide conc. in assay 1, 10, 100 nM): D (showed less than 30% of inhibitory activity in 10 nM-addition zone and showed 30% or more of inhibitory activity in 100 nM-addition zone)

32 (ARVYVDR[3Pal(6-Ph)]PYP[3Pal(6-Ph)]Y[Phe(4-COOH)][Phe(4-COOH)]SCG-NH2; not fully specified (N-terminus, bridges)) [compound 32]
aLISA BMP4 (BMP4; [1]): A (showed an inhibitory activity of 50% or more in a zone to which the peptide was added to in an amount of 0.2 nM)
aLISA BMP7 (BMP7; [2]): ND (the inhibitory activity was less than 30% at the maximum concentration evaluated)

369 (FG[NMeF]GFGDE[Cha]Q[NMeF]L[Phe(4-COOH)]CG-NH2; not fully specified (N-terminus, bridges)) [compound 369]
aLISA BMP4 (0.2 nM) % inh (BMP4; [8]): ND (the inhibitory activity was less than 30% at the maximum concentration evaluated)
aLISA BMP7 (10 nM) % inh (BMP7; [9]): D (showed less than 30% of inhibitory activity in 10 nM-addition zone and showed 30% or more of inhibitory activity in 100 nM-addition zone)

256 (ERV[Phe(4-F)]VSR[3Pal(6-Ph)]SYV[Bip][4Pal][Phe(4-COOH)][Phe(4-COOH)]SCG-NH2; not fully specified) [compound 256]
aLIZA BMP4 (0.2 nM) % Inh (BMP4; SMAD1 phosphorylation by BMP4 stimulus, peptide conc. in assay 0.02, 0.2, 2 nM, class symbols): C (showed less than 30% of inhibitory activity in 0.2 nM-addition zone and showed 30% or more of inhibitory activity in 2 nM-addition zone)
aLIZA BMP7 (10 nM) % Inh (BMP7; SMAD1 phosphorylation by BMP7 stimulus, peptide conc. in assay 10, 100, 1000 nM, class symbols): ND (the inhibitory activity was less than 30% at the maximum concentration evaluated)

284 (ERV[Phe(4-COOH)]V[KCOpipzaa]R[3Pal(6-Ph)][KCOpipzaa]YV[Bip][4Pal][Phe(4-COOH)][Phe(4-COOH)]SC[βAla]) [compound 284]
aLIZA BMP4 (0.2 nM) % inh (BMP4; [3]): C (showed less than 30% of inhibitory activity in 0.2 nM-addition zone and showed 30% or more of inhibitory activity in 2 nM-addition zone)
aLIZA BMP7 (10 nM) % inh (BMP7; [5]): ND (the inhibitory activity was less than 30% at the maximum concentration evaluated)

365 (FG[NMeF]G[Bip]GDE[Cha][Abu][NMeF]LHCG-NH2; not fully specified (N-terminus, bridges)) [compound 365]
aLISA BMP4 (0.2 nM) % inh (BMP4; [8]): ND (the inhibitory activity was less than 30% at the maximum concentration evaluated)
aLISA BMP7 (10 nM) % inh (BMP7; [9]): D (showed less than 30% of inhibitory activity in 10 nM-addition zone and showed 30% or more of inhibitory activity in 100 nM-addition zone)

388 (FG[NMeF]G[Bip]GDD[Cha]A[NMePhe(3-Cl)]LHCG-NH2; not fully specified) [compound 388]
aLISA BMP4 (0.2 nM) % inh (BMP4; BMP4 0.2 nM stimulus, peptide conc. in assay 2, 20, 200 nM): B (showed less than 30% of inhibitory activity in 20 nM-addition zone and showed 30% or more of inhibitory activity in 200 nM-addition zone)
aLISA BMP7 (10 nM) % inh (BMP7; BMP7 10 nM stimulus, peptide conc. in assay 10, 30, 90 nM): E (showed 30% or more of inhibitory activity in 10 nM-addition zone)

324 (FG[NMeF]GFGDD[Cha]A[NMeF]LHCG-NH2) [compound 324]
aLISA BMP4 (0.2 nM) % inh (BMP4; [8]): ND (the inhibitory activity was less than 30% at the maximum concentration evaluated)
aLISA BMP7 (10 nM) % inh (BMP7; [9]): D (showed less than 30% of inhibitory activity in 10 nM-addition zone and showed 30% or more of inhibitory activity in 100 nM-addition zone)

45 (Ac-AK(X8)VYVK(X8)K[Bip]PYP[Bip]Y[Phe(4-COOH)][Phe(4-COOH)]SCG-NH2; thioether (positions not given here); not fully specified (bridges)) [compound 45]
aLISA BMP4 (BMP4; [6]): A (showed an inhibitory activity of 50% or more in a zone to which the peptide was added to in an amount of 0.2 nM)
aLISA BMP7 (BMP7; [7]): ND (the inhibitory activity was less than 30% at the maximum concentration evaluated)

100 ({CH2CO}-E[KCOpipzaa]VYV[KCOpipzaa]R[Bip]SYP[Bip]Y[Phe(4-COOH)][Phe(4-COOH)]SC[βAla][dE]-OH; thioether N-17; not fully specified) [compound 100]
aLISA BMP4 (BMP4; inhibition of SMAD1 phosphorylation by BMP4 stimulus, peptides of Synthesis 2, classes A-C, ND): A (showed an inhibitory activity of 50% or more in a zone to which the peptide was added to in an amount of 0.2 nM)
aLISA BMP7 (BMP7; inhibition of SMAD1 phosphorylation by BMP7 stimulus, peptides of Synthesis 2, classes A-D, ND): C (showed less than 50% of inhibitory activity in 10 nM-addition zone and showed 50% or more of inhibitory activity in 100 nM-addition zone)

302 (ERV[Phe(4-COOH)]V[KCOpipzaa]R[3Pal(6-Ph)][KCOpipzaa]Y[Hyp][pBph2F]Y[Phe(4-COOH)][Phe(4-COOH)]SCG-NH2; not fully specified (N-terminus, bridges); also: cyclic peptide, ring closure not given here) [compound 302]
aLIZA BMP4 (0.2 nM) % inh (BMP4; [3]): C (showed less than 30% of inhibitory activity in 0.2 nM-addition zone and showed 30% or more of inhibitory activity in 2 nM-addition zone)
aLIZA BMP7 (10 nM) % inh (BMP7; [4]): E (showed less than 30% of inhibitory activity in 100 nM-addition zone and showed 30% or more of inhibitory activity in 1,000 nM-addition zone)

37 ({CH2CO}-AK(Ac)VYVDK[Bip]PYP[Bip]Y[Phe(4-COOH)][Phe(4-COOH)]SCG-NH2; thioether N-17; not fully specified) [compound 37]
aLISA BMP4 (BMP4; [1]): A (showed an inhibitory activity of 50% or more in a zone to which the peptide was added to in an amount of 0.2 nM)
aLISA BMP7 (BMP7; [2]): ND (the inhibitory activity was less than 30% at the maximum concentration evaluated)
